Source: the DeepSol protein solubility set

Test: soluble on expression in E. coli; label from the status in PepcDB or PDB records

Sequence | soluble on expression in E. coli
MAHHHHHHMTSLQNLFVAKLPRNLTDADLHQIFVQYNPTSAKVMLDATTGKSKGFGFVLFASEDAGRTAYEKLNKTHVTLHGHNFNLCIFPSKHDGKVAMEESNALYVRNIPLKLSQAEVEQFLRGFGPLTYCAMREDNFGGSVWVVYAEFDSVESAKRALMSLHGNRTYFNTSVAILAKYADSEETKRERRRRREQQQAEQQHLDTVHNFGSPTTGLDSNKGFAVQSQNTPLPPPPPPPMRTSPGHSSTGSTLASSYSTSDMHKEGTGASLHPPTFASISHHFAPGRHGGGGPPPAMGQPAAPPASSMLASSTLQPTQPVSGQPQQSPTPNSGSFLNVIFNPTSANNFGNSFTHYSVLDQTPSRSSPGTPLNFSFGPEMENSGALANGLGTGSHAMLSASGHAPMTPVRRSSNLSTSGSYRHNPYAPVTPVSSTHNSTGPSTPLVSSIAYPTAPLAIMHFGASHHLQGSPVALHPLGPGIGVANNHFASRGNNAYLAAPASFNDLSH | not soluble
SMTTNVGDSTLADLLDHSCTSGSGSGLPFLVQRTVARQITLLECVGKGRYGEVWRGSWQGENVAVKIFSSRDEKSWFRETELYNTVMLRHENILGFIASDMTSRHSSTQLWLITHYHEMGSLYDYLQLTTLDTVSCLRIVLSIASGLAHLHIEIFGTQGKPAIAHRDLKSKNILVKKNGQCCIADLGLAVMHSQSTNQLDVGNNPRVGTKRYMAPEVLDETIQVDCFDSYKRVDIWAFGLVLWEVARRMVSNGIVEDYKPPFYDVVPNDPSFEDMRKVVCVDQQRPNIPNRWFSDPTLTSLAKLMKECWYQNPSARLTALRIKKTLTKID | soluble
MGSDKIHHHHHHMTATASSSPKLRVDTRGTNELPPHLDENLLTPRFYVTEFKKAAKTELTDAREEFEAMLSEMKADYNCTHFDRKASLDRLQELPQKAKETYESYLVRSVISEFSGFLLFKEISNRLKKEGNRDLGKLFQFLARDEARHAGFLSRALVAEGIEVDLPHLGGKRAATWFPISWVIYSVYLSEKIGYWRYILMDRHLKANPDQAFAPLFDFFEPWCQDENRHGDCFTVMMRCWPGITKGFRGKLLSRFFLWSVFLTHTLTVCERGEFYELLGIDPKEFDEEVIKRTNHTSKNAFPWVFNLDDNKFWDLRNKIIESFRAFVGAKGLTKPVKFVKFATLIFKQFALPMEKTDALRYDKNVNFTGQDILNFWTDK | not soluble
SNAMSLEMFDKEIFDLTNKELERQCEGLEMIASENFTLPEVMEVMGSILTNKYAEGYPGKRYYGGCEFVDEIETLAIERCKKLFNCKFANVQPNSGSQANQGVYAALINPGDKILGMDLSHGGHLTHGAKVSSSGKMYESCFYGVELDGRIDYEKVREIAKKEKPKLIVCGASAYARVIDFAKFREIADEIGAYLFADIAHIAGLVVAGEHPSPFPYAHVVSSTTHKTLRGPRGGIIMTNDEELAKKINSAIFPGIQGGPLMHVIAAKAVGFKFNLSDEWKVYAKQVRTNAQVLANVLMDRKFKLVSDGTDNHLVLMSFLDREFSGKDADLALGNAGITANKNTVPGEIRSPFITSGLRLGTPALTARGFKEKEMEIVSNYIADILDDVNNEKLQENIKQELKKLASNFIIYERAMF | soluble
MGSDKIHHHHHHMPGASPWRALVGGVKGQPQGTGMDRIGPAERPILSEGAKRVTADLLQTINTIYDCVGDELDHHRCLAAIGEAVDGTSLSVGEVFPFFGRIRLIANYCVPEDAARIMVDSFSTIESNSFMKNLPRFPEGVPFMRRTFVSDEEHYQSDIYKLASEPWGLHSEGATIFSKSIVSAKFCGFFRLPGKAELDIHDLSKLAILNGHYMKAMKFQDRISGLETALLRANNVLDLLDFGLLLFGDQKSPLYVNQAAHRILEKSDVMSLGRDGLIFSSSKSQNHYEKIFSSVVGSRSSPTKGTGGLVQVSPASFRRPYNVVVQPISSHQTGVADATIGVLIFDPNAKRTTAIELFSTSYGLTKKETQLALHLAEGLSVDEYAKSHNVSINTVRTHVRSIYEKTNTTRQPELVSLILRLTAGLNWT | not soluble
MSLYYLFAPQFHPSKTVYVYVDRDDTADSIYNKIRQTGHVNKFTGFQWMAKYRKFDQNIHTGRYAIRPNENVYHVFSRFFRGYQEPMNLTIGSIRTLDRLARSIGKQLMIDSAEIARQLFDSAFQTEMGYTPVTMPCLFIPETYQVYWDMSVDDFFKRMQTEHKRFWNDERLAQATAIGMTPEEVCTLASIVEEETNNNEEKPMVAGLYINRLHTGMPLQADPTIKFALQDFGLRRITNEHLKVNSPYNTYINSGLPPGPIRIPSKKGLDSVLNYTKHNYIYMCAKEDFSGTHNFASNYADHMANARKYWKALNERKEGHHHHHH | not soluble
MGHHHHHHSHMGQFYEAESCLVEAGRLPAGQRRFAHFPGLASELLLTGLPLELIDGSTLSMPVRWVTGLLKELHVRLERRSRLVVLSTVGVPGTGKSTLLNTMFGLRFATGKSCGPRGAFMQLITVAEGFSQDLGCDHILVIDSGGLIGGALTSAGDRFELEASLATLLMGLSNVTVISLAETKDIPAAILHAFLRLEKTGHMPNYQFVYQNLHDVSVPGPRPRDKRQLLDPPGDLSRAAAQMEKQGDGFRALAGLAFCDPEKQHIWHIPGLWHGAPPMAAVSLAYSEAIFELKRCLLENIRNGLSNQNKNIQQLIELVRRL | not soluble
MAGFPGKEAGPPGGWRKCQEDESPENERHENFYAEIDDFAPSVLTPTGSDSGAGEEDDDGLYQVPTHWPPLMAPTGLSGERVPCRTQAAVTSNTGNSPGSRHTSCPFTLPRGAQPPAPAHQKPTAPTPKPRSRECGPSKTPDPFSWFRKTSCTEGGADSTSRSFMYQKGFEEGLAGLGLDDKSDCESEDESNFRRPSSHSALKQKNGGKGKPSGLFEHLAAHGREFSKLSKHAAQLKRLSGSVMNVLNLDDAQDTRQAKAQRKESMRVPIVTHLTNHVPVIKPACSLFLEGAPGVGKTTMLNHLKAVFGDLTIVVPEPMRYWTHVYENAIKAMHKNVTRARHGREDTSAEVLACQMKFTTPFRVLASRKRSLLVTESGARSVAPLDCWILHDRHLLSASVVFPLMLLRSQLLSYSDFIQVLATFTADPGDTIVWMKLNVEENMRRLKKRGRKHESGLDAGYLKSVNDAYHAVYCAWLLTQYFAPEDIVKVCAGLTTITTVCHQSHTPIIRSGVAEKLYKNSIFSVLKEVIQPFRADAVLLEVCLAFTRTLAYLQFVLVDLSEFQDDLPGCWTEIYMQALKNPAIRSQFFDWAGLSKVISDFERGNRD | not soluble
MKQEFSSIQFKAALLAAGLVLQVPAHANDGTIVITGAITDTTCIIEDPSDPNHTKVVQLPKISKSALKVKGDQAGRTPFTISLRDCPADLGNGVKVYFEPGPTTNYATGDLKAYKLAYATNPKATPLNSIVAATPATGVEIRISNLDDSKIPMGVDVTNQRAQGFNPVEQTGDTNKRTVTMRYLASYVKADGDIQASAITTYVGFSVVYP | not soluble
SNASDKGKLSLQDVAELIRARACQRVVVMVGAGISTPSGIPDFRSPGSGLYSNLQQYDLPYPEAIFELPFFFHNPKPFFTLAKELYPGNYKPNVTHYFLRLLHDKGLLLRLYTQNIDGLERVSGIPASKLVEAHGTFASATCTVCQRPFPGEDIRADVMADRVPRCPVCTGVVKPDIVFFGEPLPQRFLLHVVDFPMADLLLILGTSLEVEPFASLTEAVRSSVPRLLINRDLVGPLAWHPRSRDVAQLGDVVHGVESLVELLGWTEEMRDLVQRETGKLDGPDK | soluble
MGSDKIHHHHHHMNTVTIIGCGWFGLPLATQLVKQGIKVKASKRHPEDLVQLQQAGVDAYQLNLANVNSQAKNSSLFDADAIVINLPPGLRRGETDYLGYLTQLITLMGEHQYQKIIFISTTGVYPSLDQTVTEQDAAAFNDTSRTLLQAEAMFSAMKNSCIVRFSGLVGPKRHPGRFFAGKTDVSGANVAVNLVHLDDCIAAVSLILSRNDTLPIYNLAANAHPTRGEFYVAAAEHLGLTAPEFNQQQQPNKTIDGQLICHHLGFTYAFNNPFKMLDAC | not soluble
MSDPRPARAVVVGIDGSRAATHAALWAVDEAVNRDIPLRLVYVIDPSQLSAAGEGGGQSAARAALHDASRKVEATGQPVKIETEVLCGRPLTKLMQESRSAAMLCVGSVGLDHVRGRRGSVAATLAGSALCPVAVIHPSPAEPATTSQVSAVVAEVDNGVVLRHAFEEARLRGVPLRAVAVHAAETPDDVEQGSRLAHVHLSRRLAHWTRLYPEVRVDRAIAGGSACRHLAANAKPGQLFVADSHSAHELCGAYQPGCAVLTVRSANL | not soluble
MDIISLRKSPQYLEEAIAYFQRKWADENSRMVYDNCFRTCLESESPLPQWYLLINGEGEIIGCAGLATNDFNSRMDLYPWLVALFIEEQYRGHNYGNLLIKAVEEDTRRLGFGNLYLCTTHTGYYEHFNFVYIGDCYHPWGEHTRVYQKEI | soluble
